Among the targets are HLA-A*31:01; HLA-A*33:01; HLA-A*68:01; HLA-A*03:01; HLA-A*11:01.
Assay in all cases: IEDB peptide-MHC binding, purified MHC/competitive/radioactivity; filed as Kd, often an IC50 or EC50 that approximates it; ≥ and ≤ were set here for values at or beyond the usual limits of such assays
Where [1] appears, read: source organism: Vaccinia virus WR.
Where [2] appears, read: source organism: SARS coronavirus Tor2.
The mark [3] stands for this setting: source organism: Vaccinia virus Copenhagen.
Setting [4] is: source organism: Dengue virus 1 Brazil/97-11/1997.
[5] abbreviates: source organism: Dengue virus 2 Jamaica/1409/1983.
The mark [6] stands for this setting: source organism: Dengue virus 3 Martinique/1243/1999.
Setting [7] is: source organism: Dengue virus 1 Nauru/West Pac/1974.
[8] abbreviates: source organism: Dengue virus 4 Philippines/H241/1956.

Results on 40 sequences are retold here after the Immune Epitope Database (IEDB).

Bounds are passed on as bounds.

Consider IAHINTLIQY, for which the Kd worked out at 8780 nM with HLA-A*31:01 (setting [1]); 6860 nM with HLA-A*33:01 (setting [1]); 1510 nM in the assay with HLA-A*68:01 (setting [1]); 383 nM with HLA-A*03:01 (setting [1]); 975 nM with HLA-A*11:01 (setting [1]).
For IFSPENKAFK, in that order: 699 nM, 2470 nM, 184 nM, 96.4 nM and 756 nM.
On to IINNAVYTK, for which the Kd amounted to 114 nM with HLA-A*31:01 (setting [2]); 19500 nM with HLA-A*33:01 (setting [2]); 484 nM with HLA-A*68:01 (setting [2]); 37.5 nM in the assay with HLA-A*03:01 (setting [2]); 17.1 nM in the assay with HLA-A*11:01 (setting [2]).
Consider ILARNEEGR, for which the Kd with HLA-A*31:01 (setting [1]) is 4570 nM; with HLA-A*33:01 (setting [1]) it was 1050 nM; in the assay with HLA-A*68:01 (setting [1]), 87 nM; with HLA-A*03:01 (setting [1]), 16600 nM; with HLA-A*11:01 (setting [1]) it was at least 77900 nM.
Take IMEIVSHLR: the Kd stood at 11.9 nM with HLA-A*31:01 (setting [1]); 53.3 nM with HLA-A*33:01 (setting [1]); 3.25 nM in the assay with HLA-A*68:01 (setting [1]); 1960 nM in the assay with HLA-A*03:01 (setting [1]); 219 nM in the assay with HLA-A*11:01 (setting [1]).
As to IMSIGFEAR, the Kd stood at 30.3 nM in the assay with HLA-A*31:01 (setting [1]); 367 nM with HLA-A*33:01 (setting [1]); 221 nM in the assay with HLA-A*68:01 (setting [1]); 4950 nM with HLA-A*03:01 (setting [1]); 3140 nM in the assay with HLA-A*11:01 (setting [1]).
The corresponding values for IMSMMNITR are 517 nM, 4.04 nM, 29.9 nM, 870 nM and 61.2 nM.
For ISDNKKEYK, the equilibrium dissociation constant (Kd) was 1820 nM in the assay with HLA-A*31:01 (setting [1]); 10500 nM with HLA-A*33:01 (setting [1]); 3420 nM with HLA-A*68:01 (setting [1]); 1990 nM with HLA-A*03:01 (setting [1]); 359 nM in the assay with HLA-A*11:01 (setting [1]).
For KFISDNKKEY, the dissociation constant Kd with HLA-A*31:01 (setting [1]) was 427 nM; with HLA-A*33:01 (setting [1]) it was at least 70000 nM; with HLA-A*68:01 (setting [1]), at least 40700 nM; with HLA-A*03:01 (setting [1]), at least 70100 nM; with HLA-A*11:01 (setting [1]) it was at least 69800 nM.
For KIDKLTFQIY, in that order: 3410 nM, 13000 nM, 1480 nM, 1270 nM and 17500 nM.
For KIMEIVSHLR, in that order: 0.559 nM, 63.5 nM, 2.42 nM, 73 nM and 3.61 nM.
For KLDNHDILTY, in that order: 9280 nM, at least 70000 nM, 16400 nM, 104 nM and 602 nM.
As for KLVYIFEPEK, the Kd is 9210 nM with HLA-A*31:01 (setting [1]); at least 70000 nM with HLA-A*33:01 (setting [1]); 1690 nM with HLA-A*68:01 (setting [1]); 53.7 nM with HLA-A*03:01 (setting [1]); 154 nM with HLA-A*11:01 (setting [1]).
Turning to KQMYRKFSR, the Kd with HLA-A*31:01 (setting [3]) came to 4.97 nM; in the assay with HLA-A*33:01 (setting [3]), 2130 nM; in the assay with HLA-A*68:01 (setting [3]) it was 1210 nM; with HLA-A*03:01 (setting [3]), 209 nM; with HLA-A*11:01 (setting [3]) it was 78.8 nM.
For KSAGFPFNK, the Kd was determined as 31.8 nM with HLA-A*31:01 (setting [2]); 4890 nM with HLA-A*33:01 (setting [2]); 69.5 nM with HLA-A*68:01 (setting [2]); 8.65 nM with HLA-A*03:01 (setting [2]); 3.88 nM in the assay with HLA-A*11:01 (setting [2]).
As to KSIQKNTIFK, the Kd in the assay with HLA-A*11:01 (source organism: Mammarenavirus machupoense) came out at 5.35 nM.
For KVTEVKGYTK, in the assay with HLA-A*11:01 (setting [4]), the equilibrium dissociation constant (Kd) turned out to be 212 nM.
With KVVDLGCGR, the Kd with HLA-A*31:01 (setting [5]) is 1.29 nM.
With LALGFFLRK, the Kd came out at 3.33 nM with HLA-A*03:01 (setting [6]) and 9.58 nM in the assay with HLA-A*11:01 (setting [6]).
On to LITENKIWGR, for which the Kd with HLA-A*31:01 (setting [7]) was at least 21100 nM.
For LMSAAIKDSK, the Kd with HLA-A*03:01 (setting [4]) is 66.7 nM.
As to MISYGGGWR, in the assay with HLA-A*68:01 (setting [8]), the Kd was determined as 111 nM.
Turning to MLNILNRRR, the Kd with HLA-A*31:01 (setting [5]) stood at 8.37 nM.
For the sequence MLSIINKRKK, the Kd with HLA-A*03:01 (setting [6]) turned out to be 524 nM.
Take MSAAIKDNR: the Kd in the assay with HLA-A*31:01 (setting [5]) amounted to 8.82 nM; with HLA-A*68:01 (setting [5]), 14.4 nM.
In the case of MSAAIKDQK, the dissociation constant Kd with HLA-A*68:01 (setting [8]) came out at 50.9 nM; in the assay with HLA-A*11:01 (setting [8]), 480 nM.
On to RLQLSNGNR, for which the Kd in the assay with HLA-A*03:01 (source organism: Homo sapiens) came out at 407 nM.
In the case of RNKRPRLCTR, the Kd with HLA-A*31:01 (source organism: Dengue virus 3 Sri Lanka/1266/2000) amounted to 51.9 nM.
Turning to RVIDLGCGR, the dissociation constant Kd with HLA-A*31:01 (setting [6]) is 1.21 nM.
As to SQGAGWSLK, the Kd with HLA-A*11:01 (setting [5]) was 77.7 nM.
For TLFVWYFWQK, the Kd in the assay with HLA-A*03:01 (setting [4]) was found to be 24.6 nM; in the assay with HLA-A*11:01 (setting [4]) it was 54.8 nM.
With TLSLDYAWK, the equilibrium dissociation constant (Kd) in the assay with HLA-A*03:01 (setting [4]) came out at 181 nM.
Turning to TTKRDLGMSK, the Kd in the assay with HLA-A*11:01 (setting [6]) turned out to be 115 nM.
For the sequence VLARWGTFK, the Kd with HLA-A*03:01 (setting [6]) is 3.08 nM; in the assay with HLA-A*11:01 (setting [6]), 52.3 nM.
For VSILASSLLK, the figures for the Kd with HLA-A*03:01 (setting [5]) and with HLA-A*11:01 (setting [5]) were 9 nM and 26.2 nM, respectively.
Turning to VSTGSQLAK, the Kd in the assay with HLA-A*03:01 (setting [4]) amounted to 127 nM; with HLA-A*11:01 (setting [4]) it was 332 nM.
For VSTVSQLAK, the Kd in the assay with HLA-A*11:01 (setting [7]) came out at 248 nM.
Regarding WYFWQKKKQR, the Kd in the assay with HLA-A*33:01 (setting [4]) stood at 8.19 nM.
As for YQNKVVRVQR, the Kd with HLA-A*31:01 (setting [5]) is at least 36700 nM.
In the case of YVFSGDPLK, the values for the Kd in the assay with HLA-A*68:01 (setting [8]), in the assay with HLA-A*03:01 (setting [8]) and with HLA-A*11:01 (setting [8]) were 12.4 nM, 84.4 nM and 159 nM, respectively.

The Kd is the constant that tells how readily two partners part at equilibrium.
